The target in assay [1] is human growth hormone receptor on IM-9 cells (human) (UniProt P10912). In words: cell-based or functional assay.
Assay [2] deals with T1, full length rat GHR (L43R) on BAF3 cells (rat) (UniProt P16310).
T1 sequence (looked up): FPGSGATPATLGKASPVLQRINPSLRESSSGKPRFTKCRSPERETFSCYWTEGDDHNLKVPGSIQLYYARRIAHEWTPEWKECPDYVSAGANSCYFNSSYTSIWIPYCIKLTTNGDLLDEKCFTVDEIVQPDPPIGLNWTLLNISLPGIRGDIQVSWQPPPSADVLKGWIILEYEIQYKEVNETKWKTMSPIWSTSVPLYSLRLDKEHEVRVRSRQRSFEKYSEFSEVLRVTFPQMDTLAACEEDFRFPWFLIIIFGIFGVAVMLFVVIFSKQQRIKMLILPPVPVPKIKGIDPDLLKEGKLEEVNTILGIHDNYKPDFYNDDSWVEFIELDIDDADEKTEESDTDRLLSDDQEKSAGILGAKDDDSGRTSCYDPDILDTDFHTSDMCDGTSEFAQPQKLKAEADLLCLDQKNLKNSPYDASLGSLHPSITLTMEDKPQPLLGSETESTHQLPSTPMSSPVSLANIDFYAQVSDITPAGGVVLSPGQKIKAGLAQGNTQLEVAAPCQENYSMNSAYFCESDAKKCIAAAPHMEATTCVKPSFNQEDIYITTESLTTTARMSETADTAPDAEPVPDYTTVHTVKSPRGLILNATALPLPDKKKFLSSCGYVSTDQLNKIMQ
In words: cell-based or functional assay.

UniProt P10912, sequence (P10912 19-638): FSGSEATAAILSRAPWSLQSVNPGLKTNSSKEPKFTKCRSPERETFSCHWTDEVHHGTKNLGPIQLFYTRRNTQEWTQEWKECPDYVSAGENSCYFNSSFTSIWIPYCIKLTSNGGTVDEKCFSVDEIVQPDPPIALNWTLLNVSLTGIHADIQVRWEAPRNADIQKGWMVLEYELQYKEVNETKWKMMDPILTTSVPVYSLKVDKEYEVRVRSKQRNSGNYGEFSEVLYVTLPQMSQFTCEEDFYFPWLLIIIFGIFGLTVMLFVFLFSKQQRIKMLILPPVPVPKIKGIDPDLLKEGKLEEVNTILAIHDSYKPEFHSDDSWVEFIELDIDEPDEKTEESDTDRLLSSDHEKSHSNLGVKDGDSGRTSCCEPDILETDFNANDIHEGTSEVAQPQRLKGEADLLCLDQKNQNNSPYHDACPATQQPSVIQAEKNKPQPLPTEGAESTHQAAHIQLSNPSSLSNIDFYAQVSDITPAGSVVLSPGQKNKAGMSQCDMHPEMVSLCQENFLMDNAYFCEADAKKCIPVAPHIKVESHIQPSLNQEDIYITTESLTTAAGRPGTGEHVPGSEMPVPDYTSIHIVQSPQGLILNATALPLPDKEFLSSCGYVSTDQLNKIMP

“G131pAF-30KPEG (from UniProt P01241 27-217) (ligand)” registered a pSTAT5 EC50 (IM-9), WHO hGH expressed as unity (relative, WHO hGH = 1 (head prints nM)) in assay [1] of 23.8. In assay [2], this substance registered a Proliferation EC50 (BrdU), WHO hGH expressed as unity (relative, WHO hGH = 1 (head prints nM)) of 4.6.

“K145pAF-30KPEG (from UniProt P01241 27-217) (ligand)” gave a pSTAT5 EC50 (IM-9), WHO hGH expressed as unity (relative, WHO hGH = 1 (head prints nM)) in assay [1] of 20.6. Also, in assay [2], the Proliferation EC50 (BrdU), WHO hGH expressed as unity (relative, WHO hGH = 1 (head prints nM)) came out at 5.3.

In the case of “R134pAF-20KPEG (from UniProt P01241 27-217) (ligand)”, the pSTAT5 EC50 (IM-9), WHO hGH expressed as unity (relative, WHO hGH = 1 (head prints nM)) in assay [1] worked out at 5.3.

With “Y35pAF-40KPEG (from UniProt P01241 27-217) (ligand)”, in assay [1], the pSTAT5 EC50 (IM-9), WHO hGH expressed as unity (relative, WHO hGH = 1 (head prints nM)) amounted to 53.3. The Proliferation EC50 (BrdU), WHO hGH expressed as unity (relative, WHO hGH = 1 (head prints nM)) in assay [2] is 24.

Turning to “Y143pAF-30KPEG (from UniProt P01241 27-217) (ligand)”, the pSTAT5 EC50 (IM-9), WHO hGH expressed as unity (relative, WHO hGH = 1 (head prints nM)) in assay [1] came to 12.3. The same substance had a Proliferation EC50 (BrdU), WHO hGH expressed as unity (relative, WHO hGH = 1 (head prints nM)) in assay [2] of 6.6.

The record behind these values is patent US20120149636A1.
